We go through nine substances from article PMC8620955.

Broadly, the koff is the first-order rate constant of dissociation. Read a high koff as a short-lived complex. By kon is commonly meant the second-order rate constant of association. Higher therefore signals faster complex formation.

One assay has as its target HIS-tagged FcγR1A (UniProt P12314). The assay can be described thus: SPR; Biacore T200; His-tagged FcγR1A captured by an anti-HIS antibody on a CM5 chip; antibody as analyte, single-cycle kinetics, 2.5 to 40 nM, 30 min dissociation; HBS-T pH 7.4; bivalent binding model. (In general: In SPR one partner is held on a chip, and binding of the other changes the refractive index at the surface.)

Another assay has as its target HIS-tagged FcγR2B (UniProt P31994). The assay can be described thus: SPR; Biacore T200; His-tagged FcγR2B or FcγR3A captured by an anti-HIS antibody on a CM5 chip; antibody as analyte, single-cycle titration, 25 to 400 nM, 30 min dissociation; HBS-T pH 7.4; KD from fits to the responses at equilibrium.
A further assay has as its target HIS-tagged FcγR3A (UniProt P08637). The description is as above.
The target in assay [1] is HIS-tagged HER2 (Homo sapiens (assumed; trastuzumab target, species not stated)) (UniProt P04626). Kind of assay: SPR; Biacore T200; His-tagged HER2 (4 nM) captured by an anti-HIS antibody on a CM5 chip; antibody as analyte, single-cycle kinetics, 2-fold dilutions 0.5–8 nM, 20 µL/min for 2 min, 60 min dissociation; HBS-T (10 mM HEPES, 150 mM NaCl, 0.05% Tween 20, pH 7.4); bivalent binding model; duplicate.

Values joined by “and” are separate entries in the source; they are usually repeats but may differ in a detail not shown here. Equal values may be shown once.

As for Trastuzumab L177N (antibody), the Kd with HIS-tagged FcγR1A was 5.6 nM; with HIS-tagged FcγR2B, 1280 nM and 992 nM; with HIS-tagged FcγR3A, 535 nM and 551 nM. Further, the koff in the assay with HIS-tagged FcγR1A was 0.0014 s⁻¹ and 0.0015 s⁻¹. Also, the on-rate (kon) with HIS-tagged FcγR1A was 250000 M⁻¹ s⁻¹ and 260000 M⁻¹ s⁻¹.
With Trastuzumab Q160N (antibody), the Kd is 6.5 nM and 6.7 nM with HIS-tagged FcγR1A; 143 nM with HIS-tagged FcγR2B; 596 nM and 535 nM with HIS-tagged FcγR3A. Besides, the off-rate (koff) with HIS-tagged FcγR1A is 0.00076 s⁻¹. Moreover, in the assay with HIS-tagged FcγR1A, the kon is 120000 M⁻¹ s⁻¹ and 110000 M⁻¹ s⁻¹.
As to HEK Trastuzumab (antibody), in the assay with HIS-tagged FcγR1A, the Kd was determined as 9.9 nM, the koff is 0.001 s⁻¹ and the kon was found to be 110000 M⁻¹ s⁻¹. Besides, in the assay with HIS-tagged FcγR2B, the Kd worked out at 686 nM. In the assay with HIS-tagged FcγR3A, this substance showed a Kd of 433 nM.
On to Herceptin (antibody), for which the Kd stood at 4.7 nM with HIS-tagged FcγR1A, 666 nM with HIS-tagged FcγR2B and 267 nM with HIS-tagged FcγR3A.
With Trastuzumab A121N (antibody), in the assay with HIS-tagged FcγR1A, the Kd was 4.8 nM; the off-rate (koff) is 0.00083 s⁻¹ and 0.00098 s⁻¹; the kon is 170000 M⁻¹ s⁻¹ and 200000 M⁻¹ s⁻¹. The Kd in the assay with HIS-tagged FcγR2B was 3140 nM and 3740 nM. The Kd with HIS-tagged FcγR3A was 295 nM and 268 nM.
Turning to Trastuzumab L182N (antibody), in the assay with HIS-tagged FcγR1A, the Kd was 8.2 nM and 8.1 nM; the off-rate (koff) is 0.0015 s⁻¹.
Turning to Trastuzumab Q178N (antibody), the Kd with HIS-tagged FcγR1A is 2.6 nM and 2.5 nM; with HIS-tagged FcγR2B, 485 nM; with HIS-tagged FcγR3A, 239 nM and 217 nM. This substance also yielded a kon with HIS-tagged FcγR1A of 370000 M⁻¹ s⁻¹.
For the substance Trastuzumab L115N (antibody), the Kd is 6.4 nM and 3.7 nM with HIS-tagged FcγR1A; 269 nM and 338 nM in the assay with HIS-tagged FcγR2B; 301 nM and 394 nM with HIS-tagged FcγR3A; 1.13 nM and 1.16 nM in assay [1].
For Trastuzumab T198N (antibody), in the assay with HIS-tagged FcγR1A, the Kd was 3.8 nM; the off-rate constant (koff) was 0.00088 s⁻¹ and 0.0009 s⁻¹; the kon came out at 240000 M⁻¹ s⁻¹. Further, the Kd with HIS-tagged FcγR2B is 666 nM.
